Tests used:
[1] = test system: VV-GMCSF-Lact intact vaccinia virus particles (surface protein target not identified) (Vaccinia virus, LIVP strain (recombinant VV-GMCSF-Lact)); assay: MST
[2] = test system: VV-GMCSF-Lact intact vaccinia virus particles (surface protein target not identified) (Vaccinia virus, LIVP strain (recombinant VV-GMCSF-Lact)); assay: flow cytometry

“GTAACCAGCCATCACCCTATTATCTCATTATCTCGTTTTCCCTATGCGGCATAGG [NV14t_56 (8NV37_14 variant 2_12-67)]” showed a K half [1] of 1.49e+09 PFU/mL and a Kd [2] of 353 nM.

— article PMC10892425
